Test results reported in the supplement of paper PMC7877785.
± gives the uncertainty stated by the source.

Experiment: self-splicing fitness, log relative to wild type (ln ratio); higher = more splicing; Tetrahymena group I intron in knt gene, E. coli kanamycin selection, DiMSum; sequences stand for … in CUCUCU…GGAGGGAAAAGUUAUCAGGCAUGCACCUGGUAGCUAGUCUUUAAACCAAUAGAUUGCAUCGGUUUAAAAGGCAAGACCGUCAAAUUGCGGGAAAGGGGUCAACAGCCGUUCAGUACCAAGUCUCAGGGGAAACUUUGAGAUGGCCUUGCAAAGGGUAUGGUAAUAAGCUGACGGACAUGGUCCUAACCACGCAGCCAAGUCCUAAGUCAACAGAUCUUCUGUUGAUAUGGAUGCAGUUCACAGACUAAAUGUCGGUCGGGGAAGAUGUAUUCUUCUCAUAAGAUAUAGUCGGACCUCUCCUUAAUGGGAGCUAGCGGAUGAAGUGAUGCAACACUGGAGCCGCUGGGAACUAAUUUGUAUGCGAAAGUAUAUUGAUUAGUUUUGGAGUACUCGUGGUCG
Method in brief: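 DiMSum derived fitness as the error-weighted combination of fold changes across replicates, kanamycin versus no kanamycin, normalised to wild type. E. coli BL21(DE3) held the library, which randomised all eight P1ex-region intron nucleotides within the knt kanamycin-resistance gene on pET-22b(+). Six replicate transformations grew overnight at 37°C or 30°C on LB agar with or without 25 μg/mL kanamycin, also containing 100 μg/mL carbenicillin, 50 μM IPTG and 0.2% rhamnose, and pooled colonies were amplicon-sequenced on an Illumina HiSeq 2500.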

Sequence | self-splicing fitness (ln) (30 °C) | self-splicing fitness (ln) (37 °C)
CCGGAGCAAUAUUACGGCAA | -1.63 ± 0.22 | -2.48 ± 0.31
CCGGAGCAAUAUUACGGGAA | -2.09 ± 0.32 | -2.13 ± 0.37
CCGGAGCAAUAUUACGGGGC | -3.78 ± 0.26 | -2.55 ± 0.44
CCGGAGCAAUAUUACGGGUU | -3.85 ± 0.39 | -2.67 ± 0.37
CCGGAGCAAUAUUACGGUAU | -4.05 ± 0.2 | -3.34 ± 0.22
CCGGAGCAAUAUUACGUUUG | -1.54 ± 0.15 | -0.756 ± 0.15
CCGUAGCAAUAUUACGAAAG | -1.37 ± 0.088 | 0.537 ± 0.1
CCGUAGCAAUAUUACGAAUA | -2.99 ± 0.28 | 
CCGUAGCAAUAUUACGCAUG | -0.123 ± 0.14 | -1.09 ± 0.13
CCGUAGCAAUAUUACGCCCG | -0.871 ± 0.15 | -0.0634 ± 0.21
CCGUAGCAAUAUUACGCGGG | -4.02 ± 0.33 | -3.61 ± 0.39
CCGUAGCAAUAUUACGCGUG | -2.72 ± 0.15 | -1.22 ± 0.12
CCGUAGCAAUAUUACGCUAA | -3.32 ± 0.35 | -1.35 ± 0.36
CCGUAGCAAUAUUACGGCCA |  | -2.19 ± 0.35
CCGUAGCAAUAUUACGGGCG | -2.81 ± 0.17 | -1.34 ± 0.14
CCGUAGCAAUAUUACGGGGG | -4.09 ± 0.24 | -3.23 ± 0.26
CCGUAGCAAUAUUACGGGUU | -3.9 ± 0.17 | -1.57 ± 0.16
CCGUAGCAAUAUUACGUAGU | -3.13 ± 0.19 | -3.05 ± 0.33
CCGUAGCAAUAUUACGUCCU | -3 ± 0.24 | -2.62 ± 0.3
CCGUAGCAAUAUUACGUUAU | -2.06 ± 0.12 | -2.35 ± 0.23
CCGUAGCAAUAUUACGUUCC | -3.11 ± 0.47 | 
CCGUAGCAAUAUUACGUUUC | -3.05 ± 0.16 | -3.47 ± 0.29
CCUAAGCAAUAUUACGAACG | -1.68 ± 0.13 | -0.478 ± 0.14
CCUAAGCAAUAUUACGACCU | -3.17 ± 0.35 | -2.34 ± 0.31

Sequence | self-splicing fitness (ln) (30 °C) | self-splicing fitness (ln) (37 °C)
CCUAAGCAAUAUUACGAGCU | -2.2 ± 0.33 | -1.93 ± 0.27
CCUAAGCAAUAUUACGAUGG | -2.4 ± 0.16 | -2.09 ± 0.17
CCUAAGCAAUAUUACGCCGA | -0.993 ± 0.49 | -1.98 ± 0.37
CCUAAGCAAUAUUACGCGCU | -2.38 ± 0.22 | -2.75 ± 0.3
CCUAAGCAAUAUUACGCUCA | -3.32 ± 0.27 | -3.18 ± 0.4
CCUAAGCAAUAUUACGGACU | -3.46 ± 0.35 | -2.29 ± 0.36
CCUAAGCAAUAUUACGGCCC | -2.37 ± 0.29 | 
CCUAAGCAAUAUUACGGGAG | -4.51 ± 0.24 | -2.93 ± 0.21
CCUAAGCAAUAUUACGGGGC | -2.45 ± 0.2 | -2.61 ± 0.22
CCUAAGCAAUAUUACGGUAC | -2.81 ± 0.22 | -2.17 ± 0.34
CCUAAGCAAUAUUACGUAAU | -2.38 ± 0.18 | -0.984 ± 0.29
CCUAAGCAAUAUUACGUACC | -4.63 ± 0.46 | -2.75 ± 0.31
CCUAAGCAAUAUUACGUACG | -1.94 ± 0.13 | -0.851 ± 0.13
CCUAAGCAAUAUUACGUACU | -3.76 ± 0.43 | -3.01 ± 0.29
CCUAAGCAAUAUUACGUAUU | -4.79 ± 0.39 | -3.07 ± 0.2
CCUAAGCAAUAUUACGUCAU | -4.09 ± 0.22 | -2.83 ± 0.22
CCUAAGCAAUAUUACGUCGG | -2.3 ± 0.29 | -1.51 ± 0.24
CCUAAGCAAUAUUACGUCGU | -3.14 ± 0.39 | -2.08 ± 0.19
CCUAAGCAAUAUUACGUCUC | -3.01 ± 0.11 | -3.11 ± 0.19
CCUAAGCAAUAUUACGUCUG | -2.15 ± 0.2 | -2 ± 0.24
CCUAAGCAAUAUUACGUGAG | -1.2 ± 0.057 | -0.711 ± 0.076
CCUAAGCAAUAUUACGUUAU | -3.35 ± 0.17 | -2.85 ± 0.24
CCUAAGCAAUAUUACGUUGC | -3.6 ± 0.24 | -3.42 ± 0.34
CCUAAGCAAUAUUACGUUUC | -2.52 ± 0.2 | -2.97 ± 0.27
